Source: patent publication US20210380703A1
Positions count from the first letter of the chain named.

B1: 369_A03 (antibody, V domains shown)
VH: EVQLLESGGGLVQPGGSLRLSCAASGFTFSSYGMNWVRQAPGKGLEWVSNINYNGGYTGYADSVKGRFTISRDNSKNTLYLQMNSLRAEDTAVYYCARSANWHDTALDYWGQGTLVTVSS
VL: DIQMTQSPSSLSASVGDRVTITCRASQSILTYLNWYQQKPGKAPKLLIYAVTSRHSGVPSRFSGSGSGTDFTLTISSLQPEDFATYYCQQGYDLPLTFGGGTKVEIK
B2: 369_F08 (antibody, V domains shown)
VH: B1 VH with S31D, N35H, N50G, G55S, G59S, S99G
VL: B1 VL with T31S, V51A, T52S, R54L, H55Q, G91S
B3: 374_B09 (antibody, V domains shown)
VH: B1 VH with G33S, N50G, T58K, G59S, N101T, A106H
VL: B1 VL with L30V, T31R, L47V, V51A, R54L, H55A, G91S, D93E
B4: 369_B12 (antibody, V domains shown)
VH: B1 VH with S30D, G33S, N50G, T58K, G59S, N101T, A106H
VL: B1 VL with L33V, V51T, R54L, H55A, G91S, L94S
B5: 374_C02 (antibody, V domains shown)
VH: B1 VH with S30D, G33S, N50G, N101T, A106H
VL: B1 VL with T31S, V51A, G91S, L94S
B6: 368_H12 (antibody, V domains shown)
VH: B1 VH with S30D, G33S, S49A, N50S, G55S, T58K, N101T, A106H
VL: B1 VL with L30V, V51A, H55A, G91S, D93E, L94S
B7: 366_D02 (antibody, V domains shown)
VH: B1 VH with G33S, S49A, N50S, G59S, N101T, A106H
VL: B1 VL with T31S, L33V, V51T, R54L, H55A, G91S
B8: 369_F12 (antibody, V domains shown)
VH: B1 VH with G33S, S49A, N50S, G55S, T58K, G59S, N101T, A106H
VL: B1 VL with L30I, T31S, R54L, H55A, G91S, D93E, L94N
B9: 368_F12 (antibody, V domains shown)
VH: B1 VH with S30D, S31D, G33S, S49A, N50S, G55S, T58K, G59S, N101T, A106H
VL: B1 VL with L30V, L47V, V51A, R54L, H55A, G91S
B10: 365_C09 (antibody, V domains shown)
VH: B1 VH with S31D, N50G, T58K, G59S, N101T, A106H
VL: B1 VL with L30V, T31S, L33V, V51A, H55A, G91S, L94T
B11: 374_E09 (antibody, V domains shown)
VH: B1 VH with S31D, G33S, N50G, T58K, N101T, A106H
VL: B1 VL with L30V, L47V, V51A, H55A, G91S, L94S
B12: 370_A06 (antibody, V domains shown)
VH: B1 VH with G33S, S49A, N50S, G55S, T58K, G59S, N101T, A106H
VL: B1 VL with L30V, L47V, V51A, R54L, H55A, G91S
B13: 374_D12 (antibody, V domains shown)
VH: B1 VH with S30D, G33S, N50G, N101T, A106H
VL: B1 VL with L30V, T31S, L33V, L47V, V51A, H55A, G91S
B14: 369_B02 (antibody, V domains shown)
VH: B1 VH with S30D, G33S, N50G, T58K, G59S, N101T, A106H
VL: B1 VL with T31S, L47V, V51A, H55A, G91S, D93N
B15: 371_C09 (antibody, V domains shown)
VH: B1 VH with S30D, G33S, N50G, T58K, G59S, N101T, A106H
VL: B1 VL with L33V, V51A, T52S, R54L, H55Q, G91S, L94N
B16: 370_C04 (antibody, V domains shown)
VH: B1 VH with S49A, N50S, G55S, G59S, N101T, A106H
VL: B1 VL with T31S, V51A, T52S, R54L, H55Q, G91S, D93E, L94N
B17: 374_H08 (antibody, V domains shown)
VH: B1 VH with S30D, G33S, N50G, N101T, A106H
VL: B1 VL with T31S, V51A, R54L, G91S, D93E, L94N

Biological target: Mouse ACVR2A (mouse) (UniProt P27038)
Test: ELISA

Sequence of Mouse ACVR2A (mouse) (P27038 20-135 limits assumed): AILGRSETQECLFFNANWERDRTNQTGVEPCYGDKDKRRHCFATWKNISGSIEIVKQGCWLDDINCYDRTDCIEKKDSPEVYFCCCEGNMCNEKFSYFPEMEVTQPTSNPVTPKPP

| optical density [OD] | Binder |
| --- | --- |
| 0.561 | B1 |
| 0.589 | B2 |

Biological target: human ACVR2A (human) (UniProt P27037)
Test: ELISA

Sequence of human ACVR2A (human) (P27037 20-135 limits assumed): as the sequence (P27038 20-135 limits assumed) above, with R20K, I73V counted along it

| optical density [OD] | Binder |
| --- | --- |
| 0.503 | B2 |

Biological target: Human Fc (human)
Test: ELISA, negative control

| optical density [OD] | Binder |
| --- | --- |
| 0.347 | B1 |

Biological target: human Fc (human)
Test: ELISA, negative control

| optical density [OD] | Binder |
| --- | --- |
| 0.302 | B2 |

Biological target: human Fc (human)
Test: ELISA; negative control

| optical density [OD] | Binder |
| --- | --- |
| 0.172 | B3 |
| 0.4 | B4 |
| 0.167 | B5 |
| 0.381 | B6 |
| 0.349 | B7 |
| 0.434 | B8 |
| 0.349 | B9 |
| 0.266 | B10 |
| 0.162 | B11 |
| 0.331 | B12 |
| 0.235 | B13 |
| 0.456 | B14 |
| 0.308 | B15 |
| 0.334 | B16 |
| 0.199 | B17 |
